Values of other authors in paper PMC4740375.
Read-outs that look alike come from different tables or passages of the source.

Columns and labels:
CD28 (Homo sapiens) [1] = biological target: CD28 (Homo sapiens) (UniProt P10747)
CD28 (Homo sapiens) [2] = biological target: CD28 (Homo sapiens) (UniProt P10747); remark: listed apart in the source

| Kd (CD28 (Homo sapiens) [1]) [µM] | Kd (CD28 (Homo sapiens) [2]) [µM] | Substance |
| --- | --- | --- |
| 4 | – | CD80 (from UniProt P33681) |
| – | 20 | CD86 (from UniProt P42081) |
